Results: patent EP4296276A1 (Forschungszentrum Jülich GmbH, dated 2023)
Where a chain is given by its changes, count along the chain named. Ends that are not written are not given here.

B1: Flo8 (KYTAIHEWYKAHNGGA-NH2) (peptide)
peptide: KYTAIHEWYKAHNGGA-NH2
notes: Phage display hit selected on oligomeric WT C-region; Immobilised on the BLI sensor by EDC/NHS coupling
B2: Flm2 (AWQHHELKWKQYQGWR-NH2) (peptide)
peptide: AWQHHELKWKQYQGWR-NH2
notes: Phage display hit selected on monomeric WT C-region; Immobilised on the BLI sensor by EDC/NHS coupling
B3: Flm9 (PWYNAPHSHGFWGSGR-NH2) (peptide)
peptide: PWYNAPHSHGFWGSGR-NH2
notes: as for B2
B4: Flm6 (WNHPMNIRSISWHKDS-NH2) (peptide)
peptide: WNHPMNIRSISWHKDS-NH2
notes: as for B2
B5: Flm11 (HKLHHLLKWENQHKVE-NH2) (peptide)
peptide: HKLHHLLKWENQHKVE-NH2
notes: as for B2
B6: Flo3 (HISMQTYKWSQWAKHQ-NH2) (peptide)
peptide: HISMQTYKWSQWAKHQ-NH2
notes: as for B1
B7: Flm1 (IWAGHIHDWWRRGQGS-NH2) (peptide)
peptide: IWAGHIHDWWRRGQGS-NH2
modifications: not fully specified; printed as IWAGHIHDWWRRGQGS-NH2
notes: as for B2
B8: Flm5 (GIKSLISNKMHTQWNY-NH2) (peptide)
peptide: GIKSLISNKMHTQWNY-NH2
notes: as for B2
B9: Flo6 (SNWHPRHFFMSPSSPQ-NH2) (peptide)
peptide: SNWHPRHFFMSPSSPQ-NH2
notes: as for B1
B10: Flo11 (TSGVPWWKFQQQVRRT-NH2) (peptide)
peptide: TSGVPWWKFQQQVRRT-NH2
notes: as for B1
B11: Flo1 (FPHPTLKHREFMRHVS-NH2) (peptide)
peptide: FPHPTLKHREFMRHVS-NH2
notes: as for B1
B12: Flo5 (QDNPWWHEHKHWKSWP-NH2) (peptide)
peptide: QDNPWWHEHKHWKSWP-NH2
notes: as for B1

Target: DISC1 C-region mutant L807-frameshift (human) (UniProt Q9NRI5)
Experiment: BLI (Octet), peptide immobilised, protein 2 µM; KD = koff/kon

Which Kd does the source give for QDNPWWHEHKHWKSWP-NH2 [Flo5 (…-NH2)] here?
The Kd was 270 nM.

FPHPTLKHREFMRHVS-NH2 [Flo1 (…-NH2)] was tested. Which Kd did it give?
Its Kd is 40 nM.

How did the Kd turn out when HKLHHLLKWENQHKVE-NH2 [Flm11 (…-NH2)] was run?
Its Kd is 540 nM.

For AWQHHELKWKQYQGWR-NH2 [Flm2 (…-NH2)], which Kd is on record?
The Kd was 110 nM.

With IWAGHIHDWWRRGQGS-NH2 (not fully specified; printed as IWAGHIHDWWRRGQGS-NH2) [Flm1 (…-NH2)] as the binder, how does the Kd read?
The Kd was 200 nM.

Which Kd does the source give for SNWHPRHFFMSPSSPQ-NH2 [Flo6 (…-NH2)] here?
The Kd was 170 nM.

How did the Kd turn out when TSGVPWWKFQQQVRRT-NH2 [Flo11 (…-NH2)] was run?
The Kd was 160 nM.

For GIKSLISNKMHTQWNY-NH2 [Flm5 (…-NH2)], which Kd is on record?
Its Kd is 110 nM.

PWYNAPHSHGFWGSGR-NH2 [Flm9 (…-NH2)] was tested. Which Kd did it give?
The Kd was 390 nM.

Which Kd does the source give for WNHPMNIRSISWHKDS-NH2 [Flm6 (…-NH2)] here?
The Kd was 530 nM.

How did the Kd turn out when KYTAIHEWYKAHNGGA-NH2 [Flo8 (…-NH2)] was run?
The Kd was 170 nM.

With HISMQTYKWSQWAKHQ-NH2 [Flo3 (…-NH2)] as the binder, how does the Kd read?
The Kd was 400 nM.

Target: T1, wild-type (WT) human DISC1 C-region (residues 691-836) (human, UniProt Q9NRI5 691-836)
T1 construct: range 691-836; Expressed in E. coli as an N-terminal His6 fusion construct, purified on Co2+-NTA and by size exclusion; Used in solution at 2 µM in BLI; also called WT C-region; C-region of DISC1; not shown: N-terminal His6 fusion tag
T1 sequence (looked up): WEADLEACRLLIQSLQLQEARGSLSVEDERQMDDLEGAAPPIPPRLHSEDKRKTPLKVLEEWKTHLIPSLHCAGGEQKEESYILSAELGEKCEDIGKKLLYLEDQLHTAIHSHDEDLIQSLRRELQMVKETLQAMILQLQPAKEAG
Experiment: as above

B1 was tested. Which Kd did it give?
Its Kd is 2620 nM.

How did the Kd turn out when B2 was run?
Its Kd is 640 nM.

How did the Kd turn out when B3 was run?
The Kd was 3200 nM.

With B4 as the binder, how does the Kd read?
The Kd was 2010 nM.

With B5 as the binder, how does the Kd read?
Its Kd is 1270 nM.

For B6, which Kd is on record?
The Kd was 2620 nM.

For B7, which Kd is on record?
Its Kd is 150 nM.

How did the Kd turn out when B8 was run?
Its Kd is 640 nM.

For B9, which Kd is on record?
The Kd was 2360 nM.

B10 was tested. Which Kd did it give?
Its Kd is 3680 nM.

B11 was tested. Which Kd did it give?
The Kd was 100 nM.

Which Kd does the source give for B12 here?
The Kd was 250 nM.

Target: T2, DISC1 C-region (residues 691-836) mutant S713E (human, UniProt Q9NRI5 691-836)
T2 construct: range 691-836; Expression and tag are described only for the WT construct (N-terminal His6)
T2 sequence (looked up): T1 sequence (looked up) with S23E
Experiment: as above

B1 was tested. Which Kd did it give?
Its Kd is 460 nM.

B2 was tested. Which Kd did it give?
Its Kd is 220 nM.

For B3, which Kd is on record?
The Kd was 1500 nM.

B4 was tested. Which Kd did it give?
Its Kd is 1070 nM.

With B5 as the binder, how does the Kd read?
The Kd was 420 nM.

With B6 as the binder, how does the Kd read?
Its Kd is 420 nM.

With B7 as the binder, how does the Kd read?
The Kd was 80 nM.

B8 was tested. Which Kd did it give?
The Kd was 80 nM.

With B9 as the binder, how does the Kd read?
Its Kd is 460 nM.

How did the Kd turn out when B10 was run?
The Kd was 890 nM.

For B11, which Kd is on record?
Its Kd is 70 nM.

How did the Kd turn out when B12 was run?
Its Kd is 210 nM.

Target: T3, DISC1 C-region (residues 691-836) mutant S704C (human, UniProt Q9NRI5 691-836)
T3 construct: range 691-836; Expression and tag are described only for the WT construct (N-terminal His6)
T3 sequence (looked up): T1 sequence (looked up) with S14C
Experiment: as above

B1 was tested. Which Kd did it give?
The Kd was 1040 nM.

How did the Kd turn out when B2 was run?
Its Kd is 150 nM.

How did the Kd turn out when B3 was run?
The Kd was 1490 nM.

With B4 as the binder, how does the Kd read?
The Kd was 2240 nM.

B5 was tested. Which Kd did it give?
The Kd was 720 nM.

With B6 as the binder, how does the Kd read?
Its Kd is 270 nM.

With B7 as the binder, how does the Kd read?
The Kd was 80 nM.

For B8, which Kd is on record?
Its Kd is 150 nM.

How did the Kd turn out when B9 was run?
The Kd was 720 nM.

How did the Kd turn out when B10 was run?
Its Kd is 1060 nM.

For B11, which Kd is on record?
The Kd was 160 nM.

How did the Kd turn out when B12 was run?
Its Kd is 360 nM.
